Assay [1] has as its target T1, ErbB3 (HER3) on tumor cells (human, UniProt P21860 20-1342).
T1 construct: whole, on cells; Endogenous receptor on human tumor cell lines
The experiment in a line: FACS on ADRr cells (n = 3), apparent Kd. As for the experimental part:
(§1) 1×10⁵ MCF7 cells and 1×10⁵ ADRr cells are incubated at room temperature for 2 hours with the BBA at 2 uM, followed by 12 subsequent 3-fold dilutions. Then using goat anti-HSA-Alexa647 conjugated antibody as the detection antibody, cells are incubated on ice for 40 minutes. Cell binding dissociation constants (measures of binding affinities) of the BBAs on MCF7 and ADRr cells are assessed by FACS and apparent dissociation constants are determined for each BBA. The following results were obtained (also see FIGS. 12a and 12b): […]

Assay [2] deals with T1, ErbB3 (HER3) on tumor cells. The experiment in a line: FACS on MCF7 cells (n = 1), apparent Kd.
The target is the same in assay [3]. Put plainly: FACS binding to ADRr cells, y axis 'GaH-A647 Mean', x axis Ab [nM] (log). On the technique in general: In flow cytometry, cells or beads pass a laser one at a time.
The target is the same in assay [4]. The experiment in a line: cell-based or functional assay.
The target of assay [5] is T2, IGF-1R (insulin-like growth factor 1 receptor) on tumor cells (human, UniProt P08069 31-1367). Put plainly: cell-based or functional assay.
T2 sequence (P08069 31-1367): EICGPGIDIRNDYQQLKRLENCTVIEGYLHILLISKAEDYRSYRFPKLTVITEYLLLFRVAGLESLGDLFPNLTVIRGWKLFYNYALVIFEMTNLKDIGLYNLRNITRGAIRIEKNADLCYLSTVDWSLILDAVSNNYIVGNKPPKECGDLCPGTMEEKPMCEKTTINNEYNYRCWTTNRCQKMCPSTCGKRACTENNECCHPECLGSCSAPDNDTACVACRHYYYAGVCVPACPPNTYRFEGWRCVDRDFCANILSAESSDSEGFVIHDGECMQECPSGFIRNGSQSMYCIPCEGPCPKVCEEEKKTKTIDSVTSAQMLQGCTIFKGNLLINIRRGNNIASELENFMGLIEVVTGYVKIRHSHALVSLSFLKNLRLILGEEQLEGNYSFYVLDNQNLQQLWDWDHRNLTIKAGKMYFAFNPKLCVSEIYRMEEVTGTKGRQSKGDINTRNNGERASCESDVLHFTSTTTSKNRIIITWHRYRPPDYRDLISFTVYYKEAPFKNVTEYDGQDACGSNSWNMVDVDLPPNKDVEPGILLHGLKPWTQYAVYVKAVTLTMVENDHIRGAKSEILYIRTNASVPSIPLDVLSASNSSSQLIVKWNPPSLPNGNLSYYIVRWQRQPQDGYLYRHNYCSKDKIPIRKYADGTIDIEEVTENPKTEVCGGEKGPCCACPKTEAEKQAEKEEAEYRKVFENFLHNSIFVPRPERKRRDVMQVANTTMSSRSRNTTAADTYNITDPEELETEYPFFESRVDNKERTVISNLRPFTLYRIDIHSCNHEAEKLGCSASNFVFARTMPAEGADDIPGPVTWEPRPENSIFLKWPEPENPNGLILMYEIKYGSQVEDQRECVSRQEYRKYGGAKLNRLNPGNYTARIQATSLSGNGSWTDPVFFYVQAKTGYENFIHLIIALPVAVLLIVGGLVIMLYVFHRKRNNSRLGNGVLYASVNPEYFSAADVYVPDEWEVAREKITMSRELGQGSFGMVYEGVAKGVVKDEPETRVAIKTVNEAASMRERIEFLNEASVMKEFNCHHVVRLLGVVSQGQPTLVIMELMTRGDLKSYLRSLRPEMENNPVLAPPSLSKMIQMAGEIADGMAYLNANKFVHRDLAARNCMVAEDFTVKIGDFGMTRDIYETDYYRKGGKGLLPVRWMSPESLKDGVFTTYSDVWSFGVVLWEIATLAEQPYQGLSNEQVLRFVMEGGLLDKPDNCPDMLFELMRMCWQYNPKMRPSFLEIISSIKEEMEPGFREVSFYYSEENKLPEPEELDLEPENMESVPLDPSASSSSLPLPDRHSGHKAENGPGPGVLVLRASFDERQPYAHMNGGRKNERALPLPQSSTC
Assay [6] addresses T2, IGF-1R (insulin-like growth factor 1 …). The experiment in a line: FACS on ADRr cells (n = 3), apparent Kd. As to the method: as §1
Assay [7] has the same target. Put plainly: FACS on MCF7 cells (n = 1), apparent Kd.
The target is the same in assay [8]. The experiment in a line: FACS on ADRr and MCF7 cells.
Assay [9] addresses T1, ErbB3 (HER3) on tumor cells. Put plainly: FACS on ADRr and MCF7 cells.
Assay [10] addresses IGF-1R and ErbB3 together on tumor cells (MCF7, ADRr, BXPC3) (human) (UniProt P08069). Put plainly: FACS on ADRr cells (n = 3), apparent Kd.
Assay [11] shares this target. Put plainly: FACS on MCF7 cells (n = 1), apparent Kd.

Chain of IGF-1R and ErbB3 together on tumor cells (MCF7, ADRr, BXPC3) (human) (P08069 31-1367, chain 1 of 2): as the sequence (P08069 31-1367) above
Chain of IGF-1R and ErbB3 together on tumor cells (MCF7, ADRr, BXPC3) (human) (P21860 20-1342, chain 2 of 2, further chain): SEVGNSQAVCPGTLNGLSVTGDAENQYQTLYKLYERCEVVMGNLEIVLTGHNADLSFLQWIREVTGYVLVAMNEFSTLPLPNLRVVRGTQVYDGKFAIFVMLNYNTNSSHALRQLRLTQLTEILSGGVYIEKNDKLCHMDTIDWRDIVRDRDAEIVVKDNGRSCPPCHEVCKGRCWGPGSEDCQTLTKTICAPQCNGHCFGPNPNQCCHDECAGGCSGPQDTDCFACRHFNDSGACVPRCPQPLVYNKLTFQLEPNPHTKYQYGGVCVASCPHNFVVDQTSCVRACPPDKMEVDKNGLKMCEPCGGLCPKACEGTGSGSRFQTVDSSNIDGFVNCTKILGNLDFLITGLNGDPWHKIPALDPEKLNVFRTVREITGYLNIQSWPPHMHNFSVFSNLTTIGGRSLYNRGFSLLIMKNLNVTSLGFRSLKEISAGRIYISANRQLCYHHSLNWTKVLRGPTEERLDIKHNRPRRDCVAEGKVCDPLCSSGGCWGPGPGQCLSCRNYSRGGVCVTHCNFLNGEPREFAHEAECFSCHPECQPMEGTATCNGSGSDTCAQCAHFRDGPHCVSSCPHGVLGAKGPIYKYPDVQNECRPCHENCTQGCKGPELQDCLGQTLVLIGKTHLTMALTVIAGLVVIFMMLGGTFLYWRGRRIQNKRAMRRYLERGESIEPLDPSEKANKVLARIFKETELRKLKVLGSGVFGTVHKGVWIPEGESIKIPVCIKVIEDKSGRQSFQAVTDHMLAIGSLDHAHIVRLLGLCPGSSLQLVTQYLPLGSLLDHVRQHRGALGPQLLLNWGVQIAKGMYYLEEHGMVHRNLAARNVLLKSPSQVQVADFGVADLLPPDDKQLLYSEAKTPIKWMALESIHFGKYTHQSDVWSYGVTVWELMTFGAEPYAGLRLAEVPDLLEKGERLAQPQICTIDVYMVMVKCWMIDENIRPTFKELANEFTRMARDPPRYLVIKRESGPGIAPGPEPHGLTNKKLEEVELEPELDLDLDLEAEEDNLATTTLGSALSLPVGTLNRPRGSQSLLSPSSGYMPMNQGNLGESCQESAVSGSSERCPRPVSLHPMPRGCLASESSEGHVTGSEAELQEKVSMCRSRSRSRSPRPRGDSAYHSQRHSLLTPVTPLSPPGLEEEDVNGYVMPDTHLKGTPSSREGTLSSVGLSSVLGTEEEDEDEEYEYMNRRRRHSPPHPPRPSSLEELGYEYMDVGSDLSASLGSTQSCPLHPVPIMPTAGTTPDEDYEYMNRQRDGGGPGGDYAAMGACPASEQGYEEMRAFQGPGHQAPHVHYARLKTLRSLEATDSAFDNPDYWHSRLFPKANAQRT
T1 sequence (P21860 20-1342): as the sequence (P21860 20-1342, chain 2 of 2, further chain) above

B1: IgG version of SEQ ID NO: 33 (antibody, V domains shown)
VH: EVQLLESGGGLVQPGGSLRLSCAASGFTFSAYNMRWVRQAPGKGLEWVSVIYPSGGATRYADSVKGRFTISRDNSKNTLYLQMNSLRAEDTAVYYCARGYYYYGMDVWGQGTLVTVSS
VL: QSVLTQPPSASGTPGQRVTISCSGSDSNIGRNYIYWYQQFPGTAPKLLIYRNNQRPSGVPDRISGSKSGTSASLAISGLRSEDEAEYHCGTWDDSLSGPVFGGGTKLTVLG
Consider B1, for which the Kd in assay [1] is 1200 pM; in assay [2], 900 pM.

B2: IgG version of SEQ ID NO: 44 (antibody, V domains shown)
VH: EVQLLESGGGLVQPGGSLRLSCAASGFTFSVYDMYWVRQAPGKGLEWVSYIYSSGGDTDYADSVKGRFTISRDNSKNTLYLQMNSLRAEDTATYYCARASTNSIYDAMDVWGQGTTVTVSS
VL: DIQMTQSPSSVSASVGDRVTITCRASQDITNWLAWYQQKPGKAPTLLIYDASTLQSGVPSRFSGSGSGTDFTLTISSLQPEDFATYFCQQANGFPLTFGGGTKVEIK
A word on the EC50 (read off the curve): it is the concentration that produces a half-maximal response. Higher therefore signals a less potent agent. For B2, the Kd in assay [1] stood at 400 pM; in assay [2], 40 pM. Also, the “EC50 (read off the curve)” value in [3] was approximately 300 pM.

B3: Ab #6 (MM-121) (antibody, INN chains, looked up, V domains shown)
VH: EVQLLESGGGLVQPGGSLRLSCAASGFTFSHYVMAWVRQAPGKGLEWVSSISSSGGWTLYADSVKGRFTISRDNSKNTLYLQMNSLRAEDTAVYYCTRGLKMATIFDYWGQGTLVTVSS
VL: QSALTQPASVSGSPGQSITISCTGTSSDVGSYNVVSWYQQHPGKAPKLIIYEVSQRPSGVSNRFSGSKSGNTASLTISGLQTEDEADYYCCSYAGSSIFVIFGGGTKVTVL
In [4], B3 registered a Ki, inhibition of BTC-induced pErbB3 formation (ELISA, ADRr cells) of 1.1 nM and a Ki, inhibition of HRG-induced pErbB3 formation (ELISA, ADRr cells) of 0.1 nM.

B4: AB5-7 IgG2 (antibody, V domains shown)
VH: EVQLLESGGGLVQPGGSLRLSCAASGFTFSVYPMHWVRQAPGKGLEWVSSISSSGGATRYADSVKGRFTISRDNSKNTLYLQMNSLRAEDTAVYYCAKDFYDILTGNAFDIWGQGTMVTVSS
VL: DIQMTQSPSSFSASTGDRVTITCRASQGISSYLAWYQQKPGKAPKLLIYAASTLQSGVPSRFSGSGSGTDFTLTISSLQPEDSATYYCQQYFTFPLTFGGGTKVEIKR
Regarding B4, the “Ki, inhibition of IGF2-induced pAKT formation (ELISA, MCF7 cells)” value in assay [5] was found to be 0.7 nM.

B5: IgG version of SEQ ID NO: 1 (antibody, V domains shown)
VH: B4 VH
VL: B4 VL
As for B5, the Kd in assay [6] worked out at 5100 pM; in assay [7], 5600 pM.

B6: ILE-10 (bispecific antibody, human IgG2, kappa)
heavy: EVQLLESGGGLVQPGGSLRLSCAASGFTFSVYPMHWVRQAPGKGLEWVSSISSSGGATRYADSVKGRFTISRDNSKNTLYLQMNSLRAEDTAVYYCAKDFYDILTGNAFDIWGQGTMVTVSSASTKGPSVFPLAPCSRSTSESTAALGCLVKDYFPEPVTVSWNSGALTSGVHTFPAVLQSSGLYSLSSVVTVPSSNFGTQTYTCNVDHKPSNTKVDKTVERKCCVECPPCPAPPVAGPSVFLFPPKPKDTLMISRTPEVTCVVVDVSHEDPEVQFNWYVDGVEVHNAKTKPREEQFNSTFRVVSVLTVVHQDWLNGKEYKCKVSNKGLPAPIEKTISKTKGQPREPQVYTLPPSREEMTKNQVSLTCLVKGFYPSDIAVEWESNGQPENNYKTTPPMLDSDGSFFLYSKLTVDKSRWQQGNVFSCSVMHEALHNHYTQKSLSLSPGKGGGGSGGGGSGGGGSLQEVQLLESGGGLVQPGGSLRLSCAASGFTFSAYNMRWVRQAPGKGLEWVSVIYPSGGATRYADSVKGRFTISRDNSKNTLYLQMNSLRAEDTAVYYCARGYYYYGMDVWGQGTLVTVSSASTGGGGSGGGGSGGGGSQSVLTQPPSASGTPGQRVTISCSGSDSNIGRNYIYWYQQFPGTAPKLLIYRNNQRPSGVPDRISGSKSGTSASLAISGLRSEDEAEYHCGTWDDSLSGPVFGGGTKLTVLS
light: DIQMTQSPSSFSASTGDRVTITCRASQGISSYLAWYQQKPGKAPKLLIYAASTLQSGVPSRFSGSGSGTDFTLTISSLQPEDSATYYCQQYFTFPLTFGGGTKVEIKRTVAAPSVFIFPPSDEQLKSGTASVVCLLNNFYPREAKVQWKVDNALQSGNSQESVTEQDSKDSTYSLSSTLTLSKADYEKHKVYACEVTHQGLSSPVTKSFNRGEC
notes: IgG-linked BBA, designed to be functionally dimeric; the numbers of ILE-10 stand on the line that begins with ILE-11; also called Bs14F3 huIgG2
With B6, the binding result in assay [8] and in [9] was “binds” each time. Also, the Kd in assay [10] was determined as 7100 pM; in [11] it was 4500 pM.

B7: ILE-12 (bispecific antibody, human IgG2, kappa)
heavy: EVQLLESGGGLVQPGGSLRLSCAASGFTFSVYPMHWVRQAPGKGLEWVSSISSSGGATRYADSVKGRFTISRDNSKNTLYLQMNSLRAEDTAVYYCAKDFYDILTGNAFDIWGQGTMVTVSSASTKGPSVFPLAPCSRSTSESTAALGCLVKDYFPEPVTVSWNSGALTSGVHTFPAVLQSSGLYSLSSVVTVPSSNFGTQTYTCNVDHKPSNTKVDKTVERKCCVECPPCPAPPVAGPSVFLFPPKPKDTLMISRTPEVTCVVVDVSHEDPEVQFNWYVDGVEVHNAKTKPREEQFNSTFRVVSVLTVVHQDWLNGKEYKCKVSNKGLPAPIEKTISKTKGQPREPQVYTLPPSREEMTKNQVSLTCLVKGFYPSDIAVEWESNGQPENNYKTTPPMLDSDGSFFLYSKLTVDKSRWQQGNVFSCSVMHEALHNHYTQKSLSLSPGKGGGGSGGGGSGGGGSLQEVQLLESGGGLVQPGGSLRLSCAASGFTFSVYDMYWVRQAPGKGLEWVSYIYSSGGDTDYADSVKGRFTISRDNSKNTLYLQMNSLRAEDTATYYCARASTNSIYDAMDVWGQGTTVTVSSASTGGGGSGGGGSGGGGSDIQMTQSPSSVSASVGDRVTITCRASQDITNWLAWYQQKPGKAPTLLIYDASTLQSGVPSRFSGSGSGTDFTLTISSLQPEDFATYFCQQANGFPLTFGGGTKVEIK
light: B6 light
notes: IgG-linked BBA, designed to be functionally dimeric; the numbers of ILE-12 stand on the line that begins with ILE-13; also called Bs15F3 huIgG2
Regarding B7, the binding result in assay [8] and in assay [9] was “binds” throughout. The results for the Kd in assay [10] and in [11] were 300 pM and 600 pM, respectively.

(Values after patent US20170210809A1 (DYAX, published 2017).)
